From the DeepSol protein solubility set

Test: soluble on expression in E. coli; label from the status in PepcDB or PDB records

| Sequence | soluble on expression in E. coli |
| --- | --- |
| MATESGSDSQLRRRRRRDPEGSEKTELSEREPALAVAGSEENDDENEERWVGPLPVEATLAKKRKVLEFERVYLDNLPSASMYERSYMHRDVITHVVCTKTDFIITASHDGHVKFWKKIEEGIEFVKHFRSHLGVIESIAVSSEGALFCSVGDDKAMKVFDVVNFDMINMLKLGYFPGQCEWIYCPGDAISSVAASEKSTGKIFIYDGRGDNQPLHIFDKLHVSPLTQIRLNPVYKAVVSSDKSGMIEYWTGPPHEYKFPKNVNWEYKTDTDLYEFAKCKAYPTSICFSPDGKKIATIGSDRKVRIFRFLTGKLMRVFDESLSMFTELQQMRQQLPDMEFGRRMAVERELEKVDAVRLVNIVFDETGHFVLYGTMLGIKVINVEPNRCVRILGKQENIRVMQLALFQGIAKKHRAAATIEMKASENPVLQNIQADPTIVCTSFKKNRFYMFTKRETEDTKTADSDRDVFNEKPSKEEVMAATQAEGPKRVSDSAIVHTSMGDIHIKLFPVECPKTVENFCVHSRNGYYNGHTFHRIIKGFMIQTGDPTGTGMGGESIWGGEFEDEFHSTLRHDRPYTLSMANAGSNTNGSQFFITVVPTPWLDNKHTVFGRVSKGMEVVQRIFNVKVNPQTDKPYEDVSIINITVK | soluble |
| HHMDEEYDVIVLGTGLTECILSGIMSVNGKKVLHMDRNPYYGGESSSITPLEELYKRFQLLEGPPETMGRGRDWNVDLIPKFLMANGQLVKMLLYTEVTRYLDFKVVEGSFVYKGGKIYKVPSTETEALASNLMGMFEKRRFRKFLVFVANFDENDPKTFEGVDPQNTSMRDVYRKFDLGQDVIDFTGHALALYRTDDYLDQPCLETINRIKLYSESLARYGKSPYLYPLYGLGELPQGFARLSAIYGGTYMLNKPVDDIIMENGKVVGVKSEGEVARCKQLICDPSYVPDRVRKAGQVIRIICILSHPIKNTNDANSCQIIIPQNQVNRKSDIYVCMISYAHNVAAQGKYIAIASTTVETTDPEKEVEPALELLEPIDQKFVAISDLYEPIDDGSESQVFCSCSYDATTHFETTCNDIKDIYKRMAGSAFDFENMKRKQNDVFGEADQ | soluble |
| AAPYRCPLCRAGCPSLASMQAHMRGHS | soluble |
| PQASAKEYVTTTGLSPDGNQYSIGWEVPSTQEPARRSKRSTKDYAFETNQLENGMQTLIHIENSEAPTEYRFPLSLPQEAEVIPFSEGSED | not soluble |
| MSLDFNTLAQNFTQFYYNQFDTDRSQLGNLYRNESMLTFETSQLQGAKDIVEKLVSLPFQKVQHRITTLDAQPASPYGDVLVMITGDLLIDEEQNPQRFSQVFHLIPDGNSYYVFNDIFRLNYSA | soluble |
| MTAIPASARIVLDTEIPARVPWSAIIRKGQTLRIVDSHGQQAVDTLFYAADDHGERYSGQDTLRAQGSAYVTTGTRIMSTEGRTMLRMVADSCGLHDTSAGACSCESNTVRFGHQTKYLHACRENFVLEAAKHGLSKRDIVPNLNFFMNVPLDPDGNFTVVDGVSKPGDYVEMVAEMDVLCLISNCPQVNNPCNGFFPTPIQVVIYEAGEDLEHHHHHH | soluble |
| ACQIFVRNLPFDFTWKMLKDKFNECGHVLYADIKMENGKSKGCGVVKFESPEVAERACRMMNGMKLSGREIDVRIDRNA | soluble |
| QILVVRGQVIFPFVPFSLDVGRPRSRKIIKALKTLKTKRLVLVTQKFTGEQNPEFNDIYHVGTLCEIDEIVDVPGVDSKTVDYRIKGRGLQRVLIEKFSDADINEVSYQLLNSTVKDEANVDRFLQRIFPEKEEIEQLMEGAEKFLELENISKTVNVPKGLKQLDIITFKLANLVPNTESIKQAILEENEIANRLEKIIQA | soluble |
| MGSDKIHHHHHHMTRSFYWVDHSTQTFAERDLSKTVVVLPIAAVEQHGPHLPVDVDAAINAEIIRRTVARLQPDTDVLFLPPMMVGKSDEHIAFPGTLAISGETLRHVWLDLARSVKRAGAAKLILFNSHGGQMALMDIVCRDIRIELGMLAVSCSWFRIAPVEDLFSRAEIDHGIHGGDIETSMMLAIAPERVAMDKAENFVPLTVAIEKSGSMLTAEGAVGFGWQAQDLHPAGVCGNASNATAQKGQIVLDRAADGLVSLIAATQAFDLSQLTSQTRFSNLCRARRIP | not soluble |
| KEKIAILVDVQNVYYTCREAYRSNFDYNQFWYVATQEKEVVSAKAYAIASNDPKQRQFHHILRGVGFEVMLKPYIQRRDGSAKGDWDVGITLDAIEIAPDVDRVILVSGDGDFSLLVERIQQRYNKKVTVYGVPRLTSQTLIDCADNFVAIDDDFL | not soluble |
| MSVDSLPTLFQWARDNLLKEEALAISALEELPIHLFPEMFKVAFTDRHTKVLIAMVSAWPFPCLPVGTLIEDPHLETLKAVLDGLNVLVTGKVHSSRCKLRVLDLRRNVHHDFWSIQTGSHEDNCPAQIVAQKQPVETCPNPRREIPFMVVTDFELTQESFDEWTIYLMQWIQERKSSIHLCCRKLNSCASPVSNVIEIFKLVDLNCILELQLSQWWPEVLEELDPYLEGMNNLHTLMLEGLKPFRFTACEEDQEDEWQSTLPSLLSNFGSLQNLYLNDIYLLEDSLDKWLGCLKTPLKTLSITDCPRLLQSDFECLPNCPNICKLKHLNLNALFLSDVGYEIPGLILEKVTSTLQILELERCGMTDPHFKALMPALSKCSQLLKVSFCHNDISLRVLKTLLCHTAKLSQLTQELYPAPQECYEDYKILKDRFKKLCPELLNILKAKRQPKKVSFTTQTCLKCLHSCHYYYNLEATDCLCQCICQ | not soluble |
| MHRDSTDIEVKRASELPENLPETTCAFANMPSGGTIILGVDENRDFEVVGVADAAALEEALISQTRNSVKPAPMIECETFTLEGKQVLVAQVNPVPLQNRPAHYRGVAYLRQSDGDYGMNDADLALVEIQKLSHSENFQFDVVPVLNSSTRDLDSVRVKSFLEAARAGSRILSKKIDDQELLETLNIVTVKGAAALEHHHHHH | not soluble |
| MCLIVFAWRPGHAQPLIVAANRDEFYARPSLPLGQWPELPQIHAGRDLEAGGTWLGVGAEGRFAALTNIRNPHQPPARRSRGELVARFLAGDVPLDDYLRDVVGRSVEYAGFNLLLGNAEQLWHYNARDPQPQRLEPGVYGLSNAGLDTPWPKLLKARAALQEVLHDPQPQALLALLSDPQTAPFADLPDTGVGLATESLLSSVFIASPSYGTRASTALIVHADGSRHLLERSFGPYGGHLGEVELKVLEHHHHHH | not soluble |
| MGSDKIHHHHHHMTDQTAARACGIDFGTSNSTVGWLRPGHDTLLQLEDGKITLPSVVFFNYEEDHSRFGRAALAEYIDGFEGRLMRSLKSLLGSSLIDSQTEVQGKALPFRHLLKLFIQELKLRAEGAAGREFEQVVLGRPVYFVDDNPQADKLAQDTLADIARQVGFKEISFQLEPIAAAFDYESNIQKEELVLIVDIGGGTSDFTLIRLSPERRSHAERRDDILATGGVHIGGTDFDRQLSLHGVMPLFGFKTRLRNNAEMPSSQYFNLATWHTINFAYTRKAWMDLQDVHRDAAEPEKLDRLFKLIQERAGHWLAMEVEAAKIALSDRDSHRLALDAIERGLHCDLSRADFETSISALLDRVGGTVGKLLADSGLKAQDVDTVFFTGGSSGVPALRDGIRALLPNARHVEGNLFGSIGSGLAIEAKKRYG | not soluble |
| MGSDKIHHHHHHMNNKERLLYVQEILQKETDEENELTLEQIMTKLHAVKGTEVNKKTLRDDLNALKDSGLFPISVNQEKNGVEKTYQHRTKLFTIQELRLLADALTTASFISKEETEQMINKLKKLTSHRLADHLDNRLLVPPDRGNREVQELIKTVHLLHDVIKHGEVIRYQYGQYNLTKEFTLRENGRFYTLKSYALIWDDQRYYLIGEDEDEDLIRYERVDQMYHVERTGAFFTWPEKFDLMEWLRTHSSVMTEQKEDLQLECHLDSLQDVLDCFGLDVTIQSLTDERFLLATKAVIDKGLMDWLFSLGGKVKVIHPPKLAEEIQREATAIIDQYRLANS | not soluble |
| MGSDKIHHHHHHMTATVRQMWRHPIKGIGAEPLTEVRLETGGPMPLDRAWAVLTGTSEDTGAWQPCRNFARGCFGPELMAITAETQGNQITLRHPKQGEITLDPATDGARLLEWLLPLYPAERPQPHTLIKAPAGGMADADFSAVAILSLTSLKALGDALGQELDPRRFRGNLWIDGTAPFEEFDWVGRELKIGTARLEVVDRITRCRATETNPETGARDANTLKALREHWGHTDFGIRARVLSDGDIALSDSLEVL | not soluble |
| DSNALWMPYVNGRIRVIVMRNGGGGIFRFIPGPDSLKELETCFETPLEVPVREMAGAYGWRYMKAVSAEELETVLPSFFASGDRAVLLEVETPRFENAPVLKSYFTYISGESYPVNR | not soluble |
| MSLADTYRPEISVAGFIPLPDCGRQVYNFNPGWRFFKGDIRGAEAVNFDDRSWEVVSTPHTVELMPAEGSGCRNYQGPAWYRKHFVVPTATKGQRVLLHFEAAMGKQVLYLNGKRVQEHLGGYLPFTLDLTANGVQAGDSCLLAVYTDNSNDKSYPPGKPQYTLDFAYHGGIYRDVWMIAKSPVAITDAIDSRTVGGGGVFVHFDKISEKSAQVYVETEIQNDNTRSESVTIETTLTDAEGNVIKRTSGKLSLNSGEKKSIRQQMEVRNPKLWSPDAPYLYRVQSRIKKGNRSIDGGTTRIGIRLAEFRGKEGFWLNGKPFGQLVGANRHQDFAYVGNALPNSQQWRDAKRLRDAGCTIIRVAHYPQDPSFMDACDELGLFVIVATPGWQYWNKDPKFGELVHQNTREMIRRDRNHPSVLMWEPILNETRYPLDFALKALEITKEEYPYPGRPIAAADVHSAGVKEHYDVVYGWPGDDEKEDKPEQCIFTREFGENVDDWYAHNNNNRASRSWGERPLLIQALSLAKSYDEMYRTTGQFIGGTQWHPFDHQRGYHPDPYWGGIYDAFRQKKYAYEMFRSQSPASLQHPLAECGPMIFLAHEMSQFSDKDVVVFSNCDSIRLSIYDGTKTWTKPVVHAKGHMPNAPVIFENVWDFWEARGYSYTQKNWQKVNMVAEGIIDGKVVCTQKKMPSRRSTKLRLYADTQKVNLVADGSDFIVVVAEVTDDSGNVRRLAKENIVFTVEGEGEIIGDARIGANPRAVEFGSAPLLIRSTRKAGKIKVKAHVQFEGTQAPTAAEMEFESVPAELPFCYDEKEGHHHHHH | soluble |
| IKDPQTGAPVPLRALINNVSGYVIKTEMYTEVKNAKGEWVFKSLGKPGSMHLRPIATPYPVKEWLQPKRYKAHLMGTTYVYDFPELFRQASSSQWKNFSADVKLTDDFFISNELIEDENGELTEVEREPGANAIGMVAFKITVKTPEYPRGRQFVVVANDITFKIGSFGPQEDEFFNKVTEYARKRGIPRIYLAANSGARIGMAEEIVPLFQVAWNDAANPDKGFQYLYLTSEGMETLKKFDKENSVLTERTVINGEERFVIKTIIGSEDGLGVECLRGSGLIAGATSRAYHDIFTITLVTCRSVGIGAYLVRLGQRAIQVEGQPIILTGAPAINKMLGREVYTSNLQLGGTQIMYNNGVSHLTAVDDLAGVEKIVEWMSYVPAKRNMPVPILETKDTWDRPVDFTPTNDETYDVRWMIEGRETESGFEYGLFDKGSFFETLSGWAKGVVVGRARLGGIPLGVIGVETRTVENLIPADPANPNSAETLIQEPGQVWHPNSAFKTAQAINDFNNGEQLPMMILANWRGFSGGQRDMFNEVLKYGSFIVDALVDYKQPIIIYIPPTGELRGGSWVVVDPTINADQMEMYADVNARAGVLEPQGMVGIKFRREKLLDTMNRLDDKYRELRSQLSNKSLAPEVHQQISKQLADRERELLPIYGQISLQFADLHDRSSRMVAKGVISKELEWTEARRFFFWRLRRRLNEEYLIKRLSHQVGEASRLEKIARIRSWYPASVDHEDDRQVATWIEENYKTLDDKLKGLKLESFAQDLAKKIRSDHDNAIDGLSEVIKMLSTDDKEKLLKTLK | soluble |
